Experimental findings from patent US20090246191A1 are described below.

Assay [1] has as its target Aβ40 monomer (wild-type amyloid β peptide 1-40) (Artificial).
Assay [2] shares this target. Description: EuLISA, plate-immobilised wild-type Aβ40 monomer.
For assay [3], the target named is LC (Jto) fibrils, formed from recombinant Vλ6 Jto. Description: EuLISA, plate-immobilised LC fibrils.
Assay [4] addresses soluble cross-linked β-amyloid protein species (CAPS) prepared from Aβ40 (Artificial). The experiment in a line: EuLISA, plate-immobilised CAPS.
Assay [5] has as its target Aβ40 fibrils (Artificial). Description: EuLISA, plate-immobilised Aβ40 fibrils.
For assay [6], the target named is F19P Aβ40 monomer (Artificial). The experiment in a line: EuLISA, plate-immobilised F19P Aβ40 monomer (value in brackets).

A word on the EC50: it is the concentration giving half of the maximal effect.

“ImmunoPure Horseradish peroxidase (HRP) (from UniProt P00433) (enzyme)” came in with a formation of SDS stable cross-linked Aβ40 oligomers (SDS PAGE) in assay [1] of 65%.

As to “unfractionated IGIV (Gammagard Liquid, human immune globulin intravenous) (polyclonal serum or antibody)”, the EC50 in assay [2] is 861 nM; in assay [3] it was 1510 nM; in assay [4], 631 nM; in assay [5], 1080 nM; in assay [6] it was 3670 nM.
